Data as given in publication doi:10.1101/2021.02.26.432832.

Molecular target: T1, Ioc4 PWWP domain (Saccharomyces cerevisiae) (UniProt Q04213)
T1 sequence: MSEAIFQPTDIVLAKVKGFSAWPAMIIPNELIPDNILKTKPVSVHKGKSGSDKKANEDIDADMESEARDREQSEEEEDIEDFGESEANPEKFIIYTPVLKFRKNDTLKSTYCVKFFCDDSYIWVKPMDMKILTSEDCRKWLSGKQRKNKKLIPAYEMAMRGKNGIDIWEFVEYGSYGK
Assay: EMSA
Details: H3K36me3; H3 tail 1-44 ligated to H3T45C; Xenopus laevis histones

NCP H3K36me3
binding signal (fold higher affinity vs dsDNA): 6
